According to patent US20210380649A1 (BIO TECHNE, published 2021):

What was measured:
[1] = target: T1, recombinant mouse (rm) Wnt3a biotinylated protein (mouse, UniProt P27467 19-352, biotinylated (sites not given)); assay: ELISA: in-solution binding with biotinylated mouse Wnt3a (100 ng/mL), capture on streptavidin plate, detection with mouse anti-His antibody, FIG. 8
T1 construct: also called biotinylated mouse Wnt3a protein
Procedure: (§1) Purified recombinant mouse sFRP proteins were tested in ELISA binding assays with a biotinylated mouse Wnt3a protein. […] His tagged-mouse sFRP2 and His tagged-mouse sFRP3 were detected with a mouse anti-His antibody. HA tagged-mouse sFRP5 was detected with a mouse anti-HA antibody.
(§2) A 96-well tissue culture plate was blocked with 1% BSA in PBS and used as an in-solution binding plate. 120 μL of total volume containing 100 ng/mL recombinant mouse (rm) Wnt3a biotinylated protein and sFRPs (1:3 serial dilution) were incubated overnight at 4° C. in the binding plate. Then 100 μL of binding solution was transferred to streptavidin coated 96-well ELISA plate, incubating overnight at 4° C. followed by the HRP detection. The mouse sFRP1 was detected with a goat anti-mouse sFRP1 antibody, mouse sFRP2 and mouse sFRP3 were His-tagged and were detected with a mouse anti-His antibody, mouse sFRP4 was detected with a sheep anti-mouse sFRP4 antibody, and the HA-tagged mouse sFRP5 was detected with a mouse […]. […] secondary antibodies were used to detect the primary antibodies followed by colorimetric readouts.

mouse Wnt1 [2] = target: T2, mouse Wnt1 (mouse, UniProt P04426 28-370); assay: SDS-PAGE with Coomassie Blue of the gel-filtration purified complex, densitometry, FIG. 4F
T2 construct: In the co-IP and chromatography it is the protein found in CHO conditioned media; also called mWnt1; mWnt-1
T2 sequence (looked up): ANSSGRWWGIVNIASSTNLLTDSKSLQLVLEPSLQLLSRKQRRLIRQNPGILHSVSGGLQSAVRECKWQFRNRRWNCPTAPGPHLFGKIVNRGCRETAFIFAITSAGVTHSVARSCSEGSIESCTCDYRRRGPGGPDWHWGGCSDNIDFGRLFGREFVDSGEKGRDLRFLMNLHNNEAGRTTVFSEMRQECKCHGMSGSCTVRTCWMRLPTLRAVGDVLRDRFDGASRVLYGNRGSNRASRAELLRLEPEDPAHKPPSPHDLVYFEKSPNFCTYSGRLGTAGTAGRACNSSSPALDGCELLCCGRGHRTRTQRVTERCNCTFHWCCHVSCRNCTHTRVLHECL
Excerpt: FIG. 4A. Conditioned media from CHO cells co-expressing msFRP1 and mWnt-1 were loaded onto SP Sepharose column, and bound proteins were eluted with a linear gradient of high salt buffer. The distinct late elution peak was the position that sFRP was usually eluted. FIG. 4B. Fractions collected from SP elution were loaded onto 15 percent (%) SDS-PAGE and stained with silver. The 37 kDa bands represent sFRP1. FIG. 4C. The same fractions of FIG. 4B were subjected to Western blot probed with antibody against mWnt-1. mWnt-1 was detected as a ˜52 kDa band that is present in the same fractions where sFRP1 was detected. FIG. 4D. Pool from a SP Sepharose column was loaded and eluted from a gel filtration (Superdex 200) column. The earlier-eluted peak contained the sFRP1/Wnt-1 complex, while the later-eluted peak contained the free sFRP. FIG. 4E. Fractions collected from gel filtration elution were loaded onto a 15% SDS-PAGE gel and stained with Coomassie blue. The lower band (37 kDa) represents sFRP1 and the upper band (52 kDa) represents Wnt-1. FIG. 4F. sFRP1/Wnt-1 complex purified from a gel filtration column was loaded onto a 15% SDS-PAGE gel and stained with Coomassie blue. Two bands, at 37 kDa and 52 kDa, were observed, with a roughly 1:1 molar ratio.

[3] = target: T1, recombinant mouse (rm) Wnt3a …; assay: ELISA: in-solution binding with biotinylated mouse Wnt3a (100 ng/mL), capture on streptavidin plate, detection with goat anti-sFRP1 antibody, FIG. 8
Procedure: as §1, §2

mouse Wnt1 [4] = target: T2, mouse Wnt1; assay: cell-based or functional assay
[5] = target: T1, recombinant mouse (rm) Wnt3a …; assay: ELISA: in-solution binding with biotinylated mouse Wnt3a (100 ng/mL), capture on streptavidin plate, detection with mouse anti-HA antibody, FIG. 8
Procedure: as §1, §2

T1 sequence (P27467 19-352 limits assumed): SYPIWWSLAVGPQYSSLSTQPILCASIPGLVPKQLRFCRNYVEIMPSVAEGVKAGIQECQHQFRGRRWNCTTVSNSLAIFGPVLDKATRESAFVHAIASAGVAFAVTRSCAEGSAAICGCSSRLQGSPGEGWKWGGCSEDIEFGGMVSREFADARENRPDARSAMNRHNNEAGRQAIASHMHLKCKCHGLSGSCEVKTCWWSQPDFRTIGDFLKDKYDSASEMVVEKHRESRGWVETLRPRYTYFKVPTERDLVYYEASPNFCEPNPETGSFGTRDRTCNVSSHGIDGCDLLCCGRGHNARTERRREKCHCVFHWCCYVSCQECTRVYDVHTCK

B1: His tagged-mouse sFRP2 (other, UniProt P97299 25-295, looked up)
chain: LFLFGQPDFSYKRSNCKPIPANLQLCHGIEYQNMRLPNLLGHETMKEVLEQAGAWIPLVMKQCHPDTKKFLCSLFAPVCLDDLDETIQPCHSLCVQVKDRCAPVMSAFGFPWPDMLECDRFPQDNDLCIPLASSDHLLPATEEAPKVCEACKTKNEDDNDIMETLCKNDFALKIKVKEITYINRDTKIILETKSKTIYKLNGVSERDLKKSVLWLKDSLQCTCEEMNDINAPYLVMGQKQGGELVITSVKRWQKGQREFKRISRSIRKLQC
notes: also called msFRP2; not shown: His tag
Does B1 bind [1]?
Result: binds

B2: mouse sFRP1 (other, UniProt Q8C4U3 32-314, looked up)
chain: SEYDYVSFQSDIGSYQSGRFYTKPPQCVDIPVDLRLCHNVGYKKMVLPNLLEHETMAEVKQQASSWVPLLNKNCHMGTQVFLCSLFAPVCLDRPIYPCRWLCEAVRDSCEPVMQFFGFYWPEMLKCDKFPEGDVCIAMTPPNTTEASKPQGTTVCPPCDNELKSEAIIEHLCASEFALRMKIKEVKKENGDKKIVPKKKKPLKLGPIKKKELKRLVLFLKNGADCPCHQLDNLSHNFLIMGRKVKSQYLLTAIHKWDKKNKEFKNFMKRMKNHECPTFQSVFK
notes: Secreted protein; also called msFRP1; msFRP-1
How did the “molar ratio of the two bands in the purified complex” value (mouse Wnt1 [2]) turn out when B2 was run?
The value was ~1 molar ratio (sFRP1:Wnt-1).

Does B2 bind [3]?
Result: binds

What about the “fold induction above background, HEK293 TCF9-SEAP hFz4/hLRP5 Wnt Reporter assay, conditioned media of CHO cells co-expressing mWnt1 and msFRP1” value (mouse Wnt1 [4]) of the same binder?
Its value is 22 fold.

B3: mouse sFRP1-His (other, UniProt Q8C4U3 32-314, looked up, not shown: small tags and cut ends)
chain: SEYDYVSFQSDIGSYQSGRFYTKPPQCVDIPVDLRLCHNVGYKKMVLPNLLEHETMAEVKQQASSWVPLLNKNCHMGTQVFLCSLFAPVCLDRPIYPCRWLCEAVRDSCEPVMQFFGFYWPEMLKCDKFPEGDVCIAMTPPNTTEASKPQGTTVCPPCDNELKSEAIIEHLCASEFALRMKIKEVKKENGDKKIVPKKKKPLKLGPIKKKELKRLVLFLKNGADCPCHQLDNLSHNFLIMGRKVKSQYLLTAIHKWDKKNKEFKNFMKRMKNHECPTFQSVFK
Which “fold induction above background, HEK293 TCF9-SEAP hFz4/hLRP5 Wnt Reporter assay, conditioned media of CHO cells co-expressing mWnt1 and msFRP1-His” value (mouse Wnt1 [4]) does the source give for B3 here?
Its value is 17 fold.

B4: HA tagged-mouse sFRP5 (other, UniProt Q9WU66 22-314, looked up)
chain: APTRGQEYDYYGWQAEPLHGRSYSKPPQCLDIPADLPLCHTVGYKRMRLPNLLEHESLAEVKQQASSWLPLLAKRCHSDTQVFLCSLFAPVCLDRPIYPCRSLCEAARAGCAPLMEAYGFPWPEMLHCHKFPLDNDLCIAVQFGHLPATAPPVTKICAQCEMEHSADGLMEQMCSSDFVVKMRIKEIKIDNGDRKLIGAQKKKKLLKAGPLKRKDTKKLVLHMKNGASCPCPQLDNLTGSFLVMGRKVEGQLLLTAVYRWDKKNKEMKFAVKFMFSYPCSLYYPFFYGAAEPH
notes: not shown: HA tag
Does B4 bind [5]?
Result: binds
